Experimental data reported in US20130108636A1 (US Dept. of Health and Human Services, published 2013).
Numbering of substitutions follows the chain as printed.

B1: m36.4 (VHH)
VHH: QVQLVQSGGGLVQPGGSLRLSCAASAFDFSDYEMSWVREAPGKGLEWIGEINDSGNTIYNPSLKSRVTISRDNSKNTLYLQMNTLRAEDTAIYYCAIYGGNSGGEYWGQGTLVTVSS
notes: eAd, mutant of m36; also called m36.4 eAd
B2: m36.1 (VHH)
VHH: B1 VHH with A26T, S65N
notes: eAd, mutant of m36 selected from a phage library
B3: m36.5 (VHH)
VHH: B1 VHH with R86S
notes: as for B2
B4: m36.2 (VHH)
VHH: B1 VHH with V12I, E39Q, A40D, S54R
notes: as for B2

Biological target: T1, gp120Bal-CD4
T1 construct: also called 120Bal-CD4 complex
Assay: ELISA, OD 450 nm

| Binder | EC50 (read off the curve) [nM] |
| --- | --- |
| B1 | ~1 |
| B2 | ~1 |
| B3 | ~1 |
| B4 | ~2 |
